Here are results for two compounds from paper PMC7782405 (Molecular Imaging and Biology, 2020).

In data set [1] the test system is mice bearing U-87MG xenografts. Kind of data set: in vivo. The note with it: mouse. The protocol: (§1) All animal experiments complied with the current laws of the Federal Republic of Germany and were conducted according to German Animal welfare guidelines. Normal female athymic Balb/c nude mice (17–20 g, 4–6 weeks old) were obtained from Janvier SAS (St. Berthevin Cedex, France). Mice were provided with food and water ad libitum. U-87MG tumors were induced on the right shoulder by sub-cutaneous injection of 5 × 10^6 cells in a 100 μl cell suspension of a 1:1 v/v mixture of media with reconstituted basement membrane (GFR BD Matrigel™, Corning BV, Amsterdam, Holland). Static and dynamic PET imaging experiments were conducted on a microPET Focus 120 scanner (Concorde Microsystems). For dynamic PET imaging studies, approximately 5 min prior to recording PET images, mice (n = 3) were anesthetized by inhalation of 2–3 % isoflurane/oxygen gas mixture, fitted with an intravenous catheter and placed on the scanner bed in the prone position. Anesthesia was maintained using 1–2 % isoflurane. For all experiments, animals were injected with 100 μl sterile filtered phosphate-buffered saline formulations pH 7.4 of [^64Cu]Cu-8 and [^64Cu]Cu-9 (~ 500 pmol, 7–11 MBq). Dynamic scans were recorded from 0 to 1 h post radiotracer administration. List-mode data were acquired using a γ-ray energy window of 350–650 keV and a coincidence timing window of 6 ns. For the 24 h p.i. time point, mice were injected 24 h prior to image acquisition and placed in the cages. Five to ten minutes prior to static PET imaging, mice were anesthetized with isoflurane (2–4 % in air) and positioned in the scanner. Animals of the PET imaging studies were included in the ex vivo biodistribution studies (vide infra). Reconstruction was performed using unweighted OSEM2D. Image analysis was performed using AMIDE. Image counts per second per voxel (cps/voxel) were calibrated to activity concentrations (Bq ml^−1) by measuring a 3.5-cm cylinder phantom filled with a known concentration of radioactivity.

Data set [2] in a line: in vivo. On the set-up: species or system mice. Conditions: female, athymic Balb/c nude, mouse, iv, total radioactivity, Tumor uptake (PET). The protocol: as §1
For a further data set, the system named is U-87MG cells. Put plainly: Cell internalization assay. Format: cell-based, human. Conditions: for specific surface-bound fraction: all time points. The protocol: For cell internalization, U-87MG cells were seeded at a density of 10^6 cells per well in 6-well plates and incubated overnight with medium (Dulbecco modified Eagle medium with GlutaMAX containing 10 % fetal bovine serum, 1 % 10,000 U ml^−1 penicillin and 10,000 U ml^−1 streptomycin, 1 % sodium-pyruvate 100 mM). After 24 h, the medium was removed and the cells were washed with PBS. Approximately 2.5 pmol of [^64Cu]Cu-8 and [^64Cu]Cu-9 was added to the cells (in triplicates) to give a final volume of 1.5 ml PBS in each well followed by incubation for 1 h at 37 °C, 5 % CO2. […] At each time point, the internalization was stopped by removing the medium and washing the cells twice with ice-cold PBS. To remove the receptor-bound radioligand, an acid wash was carried out twice with a 0.1 M glycine buffer pH 2.8 for 5 min on ice. Finally, cells were solubilized with 1 N NaOH. Radioactivity of cell fractions (supernatant, receptor-bound, and internalized) was measured by a Perkin Elmer gamma counter. Experiments were performed twice in triplicate.

Data set [3] deals with mice bearing U-87MG xenografts. Kind of data set: in vivo. Conditions: for reduction of uptake in U-87MG xenografts by co-injection of c(RGDfK) 7: 1 h p.i. The protocol:
(§2) All animal experiments complied with the current laws of the Federal Republic of Germany and were conducted according to German Animal welfare guidelines. Normal female athymic Balb/c nude mice (17–20 g, 4–6 weeks old) were obtained from Janvier SAS (St. Berthevin Cedex, France). Mice were provided with food and water ad libitum. U-87MG tumors were induced on the right shoulder by sub-cutaneous injection of 5 × 10^6 cells in a 100 μl cell suspension of a 1:1 v/v mixture of media with reconstituted basement membrane (GFR BD Matrigel™, Corning BV, Amsterdam, Holland). For each compound, a total of three animals were injected with [^64Cu]Cu-8 and [^64Cu]Cu-9 (~ 500 pmol, 7–11 MBq) in 100 μl sterile filtered phosphate-buffered saline via a tail vein. At 1 h p.i., animals were sacrificed by isoflurane anesthesia. Organs of interest were dissected, weighed, and assayed for radioactivity in a gamma counter. The percent injected activity per gram (%IA g^−1) for each tissue was calculated by comparison of the tissue counts to a standard sample prepared from the injectate.

A short description of data set [4]: in vivo. On the set-up: species or system mice. The note with it: female, athymic Balb/c nude, mouse, in vivo, iv, total radioactivity. The protocol:
as §2

The mark [5] stands for this setting: female, athymic Balb/c nude, mouse, in vivo, iv, 1 h.

`Cn1ccnc1CN1CCN(CC(=O)NCCCC[C@@H]2NC(=O)[C@@H](Cc3ccccc3)NC(=O)[C@H](CC(=O)O)NC(=O)CNC(=O)[C@H](CCCNC(=N)N)NC2=O)CCN(Cc2nccn2C)CC1` [[^64Cu]Cu-8, metal not drawn]: the “liver uptake, normal vs blocking groups (PET)” value in data set [1] is on record as “No significant differences”. Further, the “time to maximum tumor accumulation (TAC)” value in data set [1] fell in the range of 5 to 10 min. Moreover, the tissue uptake per volume at 1 h amounted to 0.91 ± 0.39 %ID/mL in the data set “in vivo [2]” (5 mg/kg) and 2.61 ± 0.65 %ID/mL in “in vivo [2]”. The “receptor-mediated (αvß3-specific) internalization” value in the data set on U-87MG cells (4 h) stood at 1.4 ± 0.1%; in the data set with U-87MG cells (after 30 min), 0.2 ± 0.1%. This compound gave a specific surface-bound fraction in the data set with U-87MG cells of at most 0.1%. For the same compound, the “reduction of uptake in U-87MG xenografts by co-injection of c(RGDfK) 7” value in data set [3] is given as 89%. Besides, in data set [3] (setting [5]), the Tumor-to-blood ratio worked out at 14.37. For the same compound, the Tumor-to-kidney ratio in data set [3] (mouse, in vivo) came out at 0.86. Further, in data set [3] (mouse, in vivo), the Tumor-to-liver ratio was determined as 0.84. Besides, the tissue to tissue ratio at 1 h in “in vivo [4]” (Tumor-to-blood ratio) amounted to 15 ± 3.05; in the data set “in vivo [4]” (Tumor-to-kidney ratio) it was 0.86 ± 0.04; in “in vivo [4]” (Tumor-to-liver ratio), 0.83 ± 0.1; in “in vivo [4]” (Tumor-to-muscle ratio), 10.5 ± 4.79.
Regarding `N=C(N)NCCC[C@@H]1NC(=O)[C@H](CCCCNC(=O)CCCCn2ccnc2CN2CCN(Cc3nccn3CCCCC(=O)NCCCC[C@@H]3NC(=O)[C@@H](Cc4ccccc4)NC(=O)[C@H](CC(=O)O)NC(=O)CNC(=O)[C@H](CCCNC(=N)N)NC3=O)CCN(Cc3nccn3CCCCC(=O)NCCCC[C@@H]3NC(=O)[C@@H](Cc4ccccc4)NC(=O)[C@H](CC(=O)O)NC(=O)CNC(=O)[C@H](CCCNC(=N)N)NC3=O)CC2)NC(=O)[C@@H](Cc2ccccc2)NC(=O)[C@H](CC(=O)O)NC(=O)CNC1=O` [[^64Cu]Cu-9, metal not drawn], the “fold higher tumor uptake compared with the monomeric counterpart (PET images)” value in data set [1] is on record as ~ 2 fold. Moreover, the “liver uptake, normal vs blocking groups (PET)” value in data set [1] was “No significant differences”. The “time to maximum tumor accumulation (TAC)” value in data set [1] fell in the range of 5 to 10 min. The tissue uptake per volume at 1 h is 2.18 ± 0.66 %ID/mL in “in vivo [2]” (5 mg/kg) and 4.42 ± 1.1 %ID/mL in “in vivo [2]”. Moreover, the “receptor-mediated (αvß3-specific) internalization” value came out at 8.7 ± 0.6% with U-87MG cells (4 h) and 0.7 ± 0.2% in the data set with U-87MG cells (after 30 min). This compound returned a specific surface-bound fraction in the data set on U-87MG cells of at most 0.1%. The “reduction of uptake in U-87MG xenografts by co-injection of c(RGDfK) 7” value in data set [3] turned out to be 60%. The Tumor-to-liver ratio in data set [3] (setting [5]) turned out to be 0.99. Further, the Tumor-to-kidney ratio in data set [3] (mouse, in vivo) is recorded as 0.73. Besides, the “fold higher tumor uptake compared with the monomer [^64Cu]Cu-8” value in data set [3] (mouse, in vivo) was ~ 2.5 fold. The tissue to tissue ratio at 1 h turned out to be 0.73 ± 0.11 in the data set “in vivo [4]” (Tumor-to-kidney ratio), 1.03 ± 0.26 in the data set “in vivo [4]” (Tumor-to-liver ratio) and 14.1 ± 3.83 in the data set “in vivo [4]” (Tumor-to-muscle ratio).
